Experimental data from PMC7666225.

Assays:
thrombin [1] = target: thrombin
thrombin [2] = target: thrombin; remark: listed apart in the source
thrombin [3] = target: thrombin; remark: listed apart in the source

Row | Substance | thrombin time test at equimolar 3.1 nmol/l, elongation of TT against rHV1 (fold against rHV1) (thrombin [1]) | thrombin time test, clotting time with 10 µl SN2 fraction (thrombin [2]) [s] | thrombin time test at equimolar 3.1 nmol/l, effect against rHV1 (fold against rHV1) (thrombin [1]) | thrombin time test at 1, 4.9 and 9.8 nmol/l, potency against Mel-HV1 (fold against Mel-HV1) (thrombin [3])
1 | hirudin variant 1 with its endogenous wild-type signal peptide (WT-HV1), cell-free synthesized in CHO cell lysate (from UniProt P01050 1-65) (natural protein) | 9 | 94 | – | –
2 | hirudin variant 1 with its endogenous wild-type signal peptide (WT-HV1), cell-free synthesized in K562 cell lysate (from UniProt P01050 1-65) (natural protein) | – | 242 | 100 | > 10
3 | hirudin variant 1 with its endogenous wild-type signal peptide (WT-HV1), cell-free synthesized in Sf21 cell lysate (from UniProt P01050 1-65) (natural protein) | > 2 | 50 | – | –
